pKd: −log10 of the molar value.
Test system: CsrA-His6
Test: EMSA

Work on hmsE RNA 104 nt (GGA2 and GGA3) yielded a pKd of 6.86.
